Drawing on paper PMC11734750, “Using environment-sensitive tetramethylated thiophene-BODIPY fluorophores in DNA probes for studying effector-induced conformational changes of protein–DNA complexes” (RSC Chemical Biology, 2025), this text covers Kd and stoichiometry N for three compounds.

For assay [1], the target named is T1, LutR (LutR-FL, full-length).
T1 construct: full-length residues 2-240, N-terminal His6 and TEV site (pMCSG7-derived vector), His6-tagged protein purified and apparently tag kept; expressed in E. coli BL21(DE3)
The assay can be described thus: microscale thermophoresis (label-free). The class given is binding, Bacillus subtilis. The following applies: 8 μM LutR; 20 mM Tris-HCl pH 7.5, 250 mM NaCl, 0.02% β-mercaptoethanol; free protein without DNA; effector.

Assay [2] addresses DNA-binding domain of LutR (LutR–DBD, residues 2–78) (Bacillus subtilis). The assay can be described thus: SEC; analytical SEC, Superdex 200 10/300 GL, room temperature, PBS pH 7.4; protein 3 mg/ml (33.2 uM as printed); alone and with DNA (protein:DNA 2:1). (SEC sorts molecules by how far they enter the pores of the column.)
In assay [3] the target is Full-length LutR (LutR-FL, amino-acid residues 2–240) (Bacillus subtilis). Kind of assay: SEC; analytical SEC, Superdex 200 10/300 GL, room temperature, 20 mM Tris-HCl pH 7.5, 250 mM NaCl, 0.02% beta-mercaptoethanol; protein 2 mg/ml (66.7 uM), DNA 50 uM, protein:DNA 2:1.5; with and without 50 mM L-lactate; dimer told for the DNA-bound protein.

Take `C[C@H](O)C(=O)O` [L-lactate]: the Kd in assay [1] is 2.3 ± 0.005 mM.

As for “DNA-binding domain of LutR (LutR–DBD, residues 2–78) (domain or fragment)”, the stoichiometry N in assay [2] was 2.

“Full-length LutR (LutR-FL, amino-acid residues 2–240) (natural protein)” registered a stoichiometry N in assay [3] of 2.

As a reminder, the Kd is the concentration at which binding is half-saturated. Read a high Kd as lower affinity. By stoichiometry N is commonly meant the number of molecules, sites or subunits per partner or assembly.
